Measured values as given in IntAct's records for PubMed 23263556.

B1: Nuclear factor of activated T-cells, cytoplasmic 1 (Homo sapiens), O95644 (parent)
chain: MPSTSFPVPSKFPLGPAAAVFGRGETLGPAPRAGGTMKSAEEEHYGYASSNVSPALPLPTAHSTLPAPCHNLQTSTPGIIPPADHPSGYGAALDGGPAGYFLSSGHTRPDGAPALESPRIEITSCLGLYHNNNQFFHDVEVEDVLPSSKRSPSTATLSLPSLEAYRDPSCLSPASSLSSRSCNSEASSYESNYSYPYASPQTSPWQSPCVSPKTTDPEEGFPRGLGACTLLGSPRHSPSTSPRASVTEESWLGARSSRPASPCNKRKYSLNGRQPPYSPHHSPTPSPHGSPRVSVTDDSWLGNTTQYTSSAIVAAINALTTDSSLDLGDGVPVKSRKTTLEQPPSVALKVEPVGEDLGSPPPPADFAPEDYSSFQHIRKGGFCDQYLAVPQHPYQWAKPKPLSPTSYMSPTLPALDWQLPSHSGPYELRIEVQPKSHHRAHYETEGSRGAVKASAGGHPIVQLHGYLENEPLMLQLFIGTADDRLLRPHAFYQVHRITGKTVSTTSHEAILSNTKVLEIPLLPENSMRAVIDCAGILKLRNSDIELRKGETDIGRKNTRVRLVFRVHVPQPSGRTLSLQVASNPIECSQRSAQELPLVEKQSTDSYPVVGGKKMVLSGHNFLQDSKVIFVEKAPDGHHVWEMEAKTDRDLCKPNSLVVEIPPFRNQRITSPVHVSFYVCNGKRKRSQYQRFTYLPANVPIIKTEPTDDYEPAPTCGPVSQGLSPLPRPYYSQQLAMPPDPSSCLVAGFPPCPQRSTLMPAAPGVSPKLHDLSPAAYTKGVASPGHCHLGLPQPAGEAPAVQDVPRPVATHPGSPGQPPPALLPQQVSAPPSSSCPPGLEHSLCPSSPSPPLPPATQEPTCLQPCSPACPPATGRPQHLPSTVRRDESPTAGPRLLPEVHEDGSPNLAPIPVTVKREPEELDQLYLDDVNEIIRNDLSSTSTHS

Variants of: B1
Conditions: with jak3_human JAK3, P52333
Chain of jak3_human JAK3, P52333 (P52333 whole entry): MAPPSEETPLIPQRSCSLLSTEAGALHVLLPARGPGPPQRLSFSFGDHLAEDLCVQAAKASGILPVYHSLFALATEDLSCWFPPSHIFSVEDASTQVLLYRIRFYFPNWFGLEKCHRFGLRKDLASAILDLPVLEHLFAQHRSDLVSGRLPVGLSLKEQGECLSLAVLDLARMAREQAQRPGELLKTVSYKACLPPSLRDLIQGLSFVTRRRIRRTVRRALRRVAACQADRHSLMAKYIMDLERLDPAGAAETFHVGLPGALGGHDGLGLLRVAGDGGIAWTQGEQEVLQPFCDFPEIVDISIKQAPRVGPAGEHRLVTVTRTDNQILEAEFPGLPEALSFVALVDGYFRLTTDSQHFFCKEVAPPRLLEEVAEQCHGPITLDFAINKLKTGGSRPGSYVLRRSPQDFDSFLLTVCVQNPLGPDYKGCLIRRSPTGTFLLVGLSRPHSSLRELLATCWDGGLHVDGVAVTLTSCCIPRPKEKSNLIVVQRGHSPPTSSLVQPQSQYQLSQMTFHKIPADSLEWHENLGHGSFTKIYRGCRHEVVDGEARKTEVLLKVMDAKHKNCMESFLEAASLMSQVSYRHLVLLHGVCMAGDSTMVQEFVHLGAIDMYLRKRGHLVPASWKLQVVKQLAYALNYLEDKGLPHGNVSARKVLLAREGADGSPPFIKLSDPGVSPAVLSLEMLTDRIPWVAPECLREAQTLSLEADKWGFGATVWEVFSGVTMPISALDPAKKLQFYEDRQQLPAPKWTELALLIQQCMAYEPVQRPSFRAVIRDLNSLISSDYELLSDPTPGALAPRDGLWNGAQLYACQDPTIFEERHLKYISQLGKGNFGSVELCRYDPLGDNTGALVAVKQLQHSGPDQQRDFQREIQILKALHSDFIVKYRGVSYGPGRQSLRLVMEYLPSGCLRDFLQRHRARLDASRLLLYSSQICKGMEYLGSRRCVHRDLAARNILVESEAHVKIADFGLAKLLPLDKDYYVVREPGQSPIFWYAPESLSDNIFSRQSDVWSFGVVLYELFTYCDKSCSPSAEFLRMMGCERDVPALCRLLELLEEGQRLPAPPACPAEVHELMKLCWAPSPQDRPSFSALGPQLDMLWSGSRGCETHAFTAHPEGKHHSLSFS

| effect of a mutation on the interaction | Variant |
| --- | --- |
| disrupting interaction | Y371A |
